# Results taken from patent US20180362629A1 (ZOETIS BELGIUM S A, published 2018).
# T1: recombinant canine β NGF (canine, UniProt Q29074 110-229 (pig entry))
# T1 chain: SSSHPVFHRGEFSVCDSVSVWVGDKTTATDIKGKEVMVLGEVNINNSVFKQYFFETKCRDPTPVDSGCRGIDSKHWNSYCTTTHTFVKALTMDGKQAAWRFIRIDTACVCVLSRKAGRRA
# T2: recombinant canine β NGF (canine, UniProt Q29074 110-229 (pig entry))
# T2 chain: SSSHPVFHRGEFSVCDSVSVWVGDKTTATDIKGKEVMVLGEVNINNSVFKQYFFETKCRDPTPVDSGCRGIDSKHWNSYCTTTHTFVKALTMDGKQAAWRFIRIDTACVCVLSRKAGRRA
# Tests used:
# recombinant canine β NGF [1] = target: T1, recombinant canine β NGF; experiment: cell-based or functional assay
# recombinant canine β NGF [2] = target: T2, recombinant canine β NGF; experiment: cell-based or functional assay
# recombinant canine β NGF [3] = target: T1, recombinant canine β NGF; experiment: SPR (Biacore T100), antibody captured on goat anti-canine IgG, canine NGF injected; Expt 2
# Protocol: (§1) Purified mouse/canine chimeric antibodies and caninized antibodies were analyzed for affinity to canine NGF using a Biacore T100 instrument. Goat anti Canine IgG (Southern Biotech) was immobilized at 5000-10000 RU on a CM5 chip using an amine coupling procedure according to the manufacturer's instructions (Biacore). […] The association rate was monitored for 5 min and the dissociation rate was monitored for 10-20 min. The chip surface was regenerated using 50-75 ul 10 mM glycine pH 1.5 at a flow rate of 50-100 ul/min. Data was analyzed using Biaevaluation T100 software version 2.0.2, software, GE Healthcare Life Sciences (Piscataway, N.J.). Overall affinity parameters established for mouse/canine chimeric antibodies is summarized in Table 22 and for caninized antibodies in Table 23. […] The overall KDs of the mouse/canine anti-NGF mAbs range from about 1300 pM to 1.6 pM. […] The overall KDs of the caninized anti-NGF mAbs range from about 42 pM to 1.2 pM.
# recombinant canine β NGF [4] = target: T1, recombinant canine β NGF; experiment: SPR (Biacore T100), antibody captured on goat anti-canine IgG, canine NGF injected; Average
# Protocol: as §1
# recombinant canine β NGF [5] = target: T1, recombinant canine β NGF; experiment: SPR (Biacore T100), antibody captured on goat anti-canine IgG, canine NGF injected; Expt 1
# Protocol: as §1
binder,measurement,setting,value
"77.3 Canine IgG1/k (antibody, V domains shown) VH: EVQLVQSAAEVKKPGASVKVSCKASGFNIKDTYIYWVKQAPGAGLEWIGRIDPANGNTIYASKFQGKASITADTSTNTAYMELSNLRTEDTAVYYCAGYGYYAYWGQGTLVTVSS VL: DVVLTQTPRSLSVSPGETASISCKSTKSLLNGDGFTYLDWYRQKPGQSPQLLIYLVSNRFSGVPDRFSGSGSGTDFTLRISRVEADDTGLYYCFESNYLFTFGQGTNLEMKR","IC50, canine NGF-induced TF-1 cell proliferation (70 pM canine NGF)",recombinant canine β NGF [1],0.625 nM
"Mu77 Canine IgG1/k Chimera (antibody, V domains shown) VH: EVQLQQSGAELVKPGASVKLSCTASGFNIKDTYIYWVKQRPEQGLEWIGRIDPANGNTIYASKFQGKASITADTSSNTAYMQLSSLTSGDTAVYYCAGYGYYAYWGQGTTLTVSS VL: DVVLTQTPLSLPVNIGDQASISCKSTKSLLNGDGFTYLDWYLQKPGQSPQLLIYLVSNRFSGVPDRFSGSGSGTDFTLKISRVEAEDLGVYYCFESNYLFTFGSGTKLEMKR",TF-1 cell proliferation potency (70 pM canine NGF),recombinant canine β NGF [2],< 50 pM
"82.4 Canine IgG1/k (antibody, V domains shown, The variable/constant junction was not checked; also called PR-1313521; PR-13113521) VH: EVQLQESGPGLVKPSQTLSLTCTVSGGSVTGYNINWIRQRPDRGLEWMGMIWGYGDTDYNSALKSRISITKDNTKSQLFLQLTSTTTEDTAVYYCARDHYGGNDWYFDVWGQGTLVTVSS VL: DIQMTQTPLSLSASPGESASISCRASQDITNYLNWYRQKPGQSPKLLIYYTSRLHSGVPSRFSGSGSGTDYTLRISRVEDEDAGLYFCQQGKTLPRTFGQGTKLEIKR","IC50, canine NGF-induced TF-1 cell proliferation (70 pM canine NGF)",recombinant canine β NGF [1],16 pM
same,Kd,recombinant canine β NGF [3],1.5 pM
same,koff,recombinant canine β NGF [3],1.2e-05 s⁻¹
same,kon,recombinant canine β NGF [3],7.7e+06 M⁻¹ s⁻¹
same,Kd,recombinant canine β NGF [4],1.4 pM
same,koff,recombinant canine β NGF [4],1.2e-05 s⁻¹
same,kon,recombinant canine β NGF [4],8.2e+06 M⁻¹ s⁻¹
same,Kd,recombinant canine β NGF [5],1.2 pM
same,koff,recombinant canine β NGF [5],1.1e-05 s⁻¹
same,kon,recombinant canine β NGF [5],8.6e+06 M⁻¹ s⁻¹
"PR-1254981 (antibody, mouse IgG1, V domains shown) VH: EVQLVESGGGAVKPGGSLTLSCAASGFTFSNHYMYWVRQTPEKRLEWVASISDGGAYTFYPDTVKGRFTISRDNVNNNLYLQMRHLKSEDTAMYYCTREESANNGFAFWGQGTLVTVSA VL: DVLMTQTPLSLPVSLGDQASISCRSSQSILHSNGNTYLEWYLQKPGQSPNLLIYRVSNRFSGVPDRFSGSGSGTDFTLKISRVEAEDLGVYYCFQGAHVPFTFGSGTKLEIKR",PathHunter IC50 (441 pM canine NGF),recombinant canine β NGF [2],< 1 nM
same,SureFire cellular pERK IC50 (128 pM canine NGF),recombinant canine β NGF [2],< 1 nM
"Mu81 Canine IgG1/k Chimera (antibody, V domains shown) VH: EVQLVESGGGAVKPGGSLTLSCAASGFTFSNHYMYWVRQTPEKRLEWVASISDGGAYTFYPDTVKGRFTISRDNVNNNLYLQMRHLKSEDTAMYYCTREESANNGFAFWGQGTLVTVSA VL: DVLMTQTPLSLPVSLGDQASISCRSSQSILHSNGNTYLEWYLQKPGQSPNLLIYRVSNRFSGVPDRFSGSGSGTDFTLKISRVEAEDLGVYYCFQGAHVPFTFGSGTKLEIKR",TF-1 cell proliferation potency (70 pM canine NGF),recombinant canine β NGF [2],< 50 pM
"73.2 Canine IgG1/k (antibody, V domains shown, The variable/constant junction was not checked; also called PR-1313520; PR-13113520) VH: QVQLVQSAAEVKKPGASVKVSCKASGYTFTNYWMHWVQQAPGAGLEWIGRIDPYGGGTKHNEKFKRRATVTADKSTSTAYMELSNLRTEDTAVYYCTRSGYDYYFDVWGQGTLVTVSS VL: DIQMTQTPLSLSASPGESASITCRASENIYSFLAWHRQKPGQSPQLLVYNANTLAEGVPSRFSGSGSGTQFTLRISRVEDEDAGLYYCQHHFGTPFTFGQGTKLEIKR","IC50, canine NGF-induced TF-1 cell proliferation (70 pM canine NGF)",recombinant canine β NGF [1],0.422 nM
same,Kd,recombinant canine β NGF [3],42 pM
same,koff,recombinant canine β NGF [3],0.00029 s⁻¹
same,kon,recombinant canine β NGF [3],6.9e+06 M⁻¹ s⁻¹
same,Kd,recombinant canine β NGF [4],43 pM
same,koff,recombinant canine β NGF [4],0.00029 s⁻¹
same,kon,recombinant canine β NGF [4],6.6e+06 M⁻¹ s⁻¹
same,Kd,recombinant canine β NGF [5],44 pM
same,koff,recombinant canine β NGF [5],0.00028 s⁻¹
same,kon,recombinant canine β NGF [5],6.3e+06 M⁻¹ s⁻¹
"73.4 Canine IgG1/k (antibody, V domains shown) VH: EVQLVQSAAEVKKPGASVKVSCKASGYIFINYWMHWVQQAPGAGLEWMGRIDPYGGGTKHNEKFKRRVTLTADKSTSTVYMELSNLRTEDTAVYYCTRSGYDYYFDVWGQGTLVTVSS VL: DIQMTQTPLSLSASPGESASISCRASENIYSFLAWHRQKPGQSPQLLIYNANTLAEGVPSRFSGSGSGTQFTLRISRVEDEDAGLYYCQHHFGTPFTFGQGTKLEIKR","IC50, canine NGF-induced TF-1 cell proliferation (70 pM canine NGF)",recombinant canine β NGF [1],0 nM
77.4 Canine IgG1/k (antibody) heavy: EVQLVQSAAEVKKPGASVKVSCKASGYIFIDTYIYWVKQAPGAGLEWMGRIDPANGNTIYASKFQGRVTLTADTSTNTVYMELSNLRTEDTAVYYCAGYGYYAYWGQGTLVTVSSASTTAPSVFPLAPSCGSTSGSTVALACLVSGYFPEPVTVSWNSGSLTSGVHTFPSVLQSSGLHSLSSMVTVPSSRWPSETFTCNVVHPASNTKVDKPVFNECRCTDTPPCPVPEPLGGPSVLIFPPKPKDILRITRTPEVTCVVLDLGREDPEVQISWFVDGKEVHTAKTQSREQQFNGTYRVVSVLPIEHQDWLTGKEFKCRVNHIDLPSPIERTISKARGRAHKPSVYVLPPSPKELSSSDTVSITCLIKDFYPPDIDVEWQSNGQQEPERKHRMTPPQLDEDGSYFLYSKLSVDKSRWQQGDPFTCAVMHETLQNHYTDLSLSHSPGK light: DLVLTQTPRSLSVSPGETASISCKSTKSLLNGDGFTYLDWYRQKPGQSPQLLIYLVSNRFSGVPDRFSGSGSGTDFTLRISRVEADDTGLYYCFESNYLFTFSQGTNLEMKRNDAQPAVYLFQPSPDQLHTGSASVVCLLNSFYPKDINVKWKVDGVIQDTGIQESVTEQDKDSTYSLSSTLTMSSTEYLSHELYSCEITHKSLPSTLIKSFQRSECQRVD,"IC50, canine NGF-induced TF-1 cell proliferation (70 pM canine NGF)",recombinant canine β NGF [1],0 nM
"PR-1254982 (antibody, mouse IgG1, V domains shown) VH: QVQLKESGPGLVAPSQSLSITCTVSGFSLTGYNINWVRQPPGKGLEWLGMIWGYGDTDYNSALKSRLSISKDNSKSQVFLKMNSLQTDDTARYYCARDHYGGNDWYFDVWGTGTTVTVSS VL: DIQMTQTTSSLSASLGDRVTITCRASQDITNYLNWYQQKPDGTVKLLIYYTSRLHSGVPSRFSGSGSGTDYSLTISNLDQEDIATYFCQQGKTLPRTFGGGTKLEIKR",PathHunter IC50 (441 pM canine NGF),recombinant canine β NGF [2],< 1 nM
same,SureFire cellular pERK IC50 (128 pM canine NGF),recombinant canine β NGF [2],< 1 nM
"Mu82 Canine IgG1/k Chimera (antibody, V domains shown) VH: QVQLKESGPGLVAPSQSLSITCTVSGFSLTGYNINWVRQPPGKGLEWLGMIWGYGDTDYNSALKSRLSISKDNSKSQVFLKMNSLQTDDTARYYCARDHYGGNDWYFDVWGTGTTVTVSS VL: DIQMTQTTSSLSASLGDRVTITCRASQDITNYLNWYQQKPDGTVKLLIYYTSRLHSGVPSRFSGSGSGTDYSLTISNLDQEDIATYFCQQGKTLPRTFGGGTKLEIKR",TF-1 cell proliferation potency (70 pM canine NGF),recombinant canine β NGF [2],< 50 pM
"72.3 Canine IgG1/k (antibody, V domains shown) VH: EVHLVESGGDLVKPGGSLRLSCVASGFTFSDYYMFWIRQSPGKGLEWVATISDGGSYTYYTDNVKGRFTISRDNANNNLYLQMNSLKAEDTAVYYCAKDWSDSEGFAYWGQGTLVTVSS VL: DVLMTQTPPSLSVSPREPASISCRSSQSIVQSNGNTYLEWYLQKPGQSPKLLIYKVSNRFSGVPDRFSGSGSGTDFTLRISRVEADDTGVYYCFQGSHVPFTFGAGTKVELKR","IC50, canine NGF-induced TF-1 cell proliferation (70 pM canine NGF)",recombinant canine β NGF [1],0 nM
"72.4 Canine IgG1/k (antibody, V domains shown) VH: EVHLVESGGDLVKPGGSLRLSCVASGFTFSDYYMFWVRHSPGKGLEWVATISDGGSYTYYTDNVKGRFTISRDNANNTLYLQMNSLRAEDTAVYYCAKDWSDSEGFAYWGQGTLVTVSS VL: DIVMTQTPPSLSVSPREPASISCRSSQSIVQSNGNTYLEWYLQKPGQSPKLLIYKVSNRFSGVPDRFSGSGSGTDFTLRISRVEADDTGVYYCFQGSHVPFTFGAGTKVELKR","IC50, canine NGF-induced TF-1 cell proliferation (70 pM canine NGF)",recombinant canine β NGF [1],0 nM
"PR-1254973 (antibody, mouse IgG2b, V domains shown) VH: QVQLQQPGAELVKPGASVKLSCKASGYTFTNYWMHWVKQRPGQGLEWIGRIDPYGGGTKHNEKFKRKATVTADKSSSTAYILLSSLTSEDSAVYYCTRSGYDYYFDVWGTGTTVTVSS VL: DIQMTQSPASLSASVGETVTVTCRASENIYSFLAWHQQKQGKSPQLLVYNANTLAEGVPSRFSGSGSGTQFSLKINSLQPEDFGSYYCQHHFGTPFTFGSGTKLEIKR",PathHunter IC50 (441 pM canine NGF),recombinant canine β NGF [2],< 1 nM
same,SureFire cellular pERK IC50 (128 pM canine NGF),recombinant canine β NGF [2],< 1 nM
"Mu73 Canine IgG1/k Chimera (antibody, V domains shown) VH: QVQLQQPGAELVKPGASVKLSCKASGYTFTNYWMHWVKQRPGQGLEWIGRIDPYGGGTKHNEKFKRKATVTADKSSSTAYILLSSLTSEDSAVYYCTRSGYDYYFDVWGTGTTVTVSS VL: DIQMTQSPASLSASVGETVTVTCRASENIYSFLAWHQQKQGKSPQLLVYNANTLAEGVPSRFSGSGSGTQFSLKINSLQPEDFGSYYCQHHFGTPFTFGSGTKLEIKR",TF-1 cell proliferation potency (70 pM canine NGF),recombinant canine β NGF [2],< 50 pM
